Experimental data published in the supplement of paper PMC7125110.
± gives the standard error. Fewer inactive variants are shown than the library holds.

B1: glmS ribozyme (parent)
chain: AUAAAAGCGCCAGAACUACAGAAAUGUAGUUGACGAGGAGGAGGUUUAUCGAAUUUUCGGCGGAUGCCUCCAAA

Columns and labels:
Details in all cases: with glucosamine-6-phosphate
[1] = variants of: B1; experiment: self-cleavage kobs at 40 uM GlcN6P; higher = faster cleavage; RNA array
Method in brief: (§1)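 On sequenced MiSeq chips, barcoded ribozyme variants were made in situ by E. coli RNA polymerase and followed at 37 °C through a hybridised Cy3 probe. Glucosamine-6-phosphate was flowed in at 40 μM to 10 mM in HEPES/KCl/Mg(OAc)2 buffer. Exponential fits to normalised per-tile medians gave kobs, and weighted Michaelis–Menten fits gave kcat and KM.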

[2] = variants of: B1; experiment: self-cleavage kobs at 160 uM GlcN6P; higher = faster cleavage; RNA array
Method in brief: as §1

[3] = variants of: B1; experiment: self-cleavage kobs at 640 uM GlcN6P; higher = faster cleavage; RNA array
Method in brief: as §1

[4] = variants of: B1; experiment: self-cleavage kobs at 2500 uM GlcN6P; higher = faster cleavage; RNA array
Method in brief: as §1

[5] = variants of: B1; experiment: self-cleavage kobs at 10000 uM GlcN6P; higher = faster cleavage; RNA array
Method in brief: as §1

Row | Variant | self-cleavage kobs at 40 uM GlcN6P [1] [s⁻¹] | self-cleavage kobs at 160 uM GlcN6P [2] [s⁻¹] | self-cleavage kobs at 640 uM GlcN6P [3] [s⁻¹] | self-cleavage kobs at 2500 uM GlcN6P [4] [s⁻¹] | self-cleavage kobs at 10000 uM GlcN6P [5] [s⁻¹]
1 | G44C C71G | < 1e-05 | < 1e-05 | < 1e-05 | < 1e-05 | < 1e-05
2 | G44C C71A | < 1e-05 | < 1e-05 | < 1e-05 |  | 
3 | A36C G41U G44C U55G U56C C61G | < 1e-05 |  |  |  | 
4 | G44C G51A A53C | < 1e-05 |  |  |  | < 1e-05
5 | U65G C67A | 7.27e-05 ± 1.2e-05 | 0.000116 ± 1.9e-05 | 0.000435 ± 6.7e-05 | 0.00133 ± 0.0004 | 0.00417 ± 0.0006
6 | A12U C16G U56G G59U | < 1e-05 |  |  |  | 
7 | G29C A48G | < 1e-05 | < 1e-05 | < 1e-05 | < 1e-05 | 
8 | G44C G62C | < 1e-05 | < 1e-05 | < 1e-05 | < 1e-05 | < 1e-05
9 | G51A U54A U55A | < 1e-05 |  |  |  | 
10 | G44A U69G | < 1e-05 |  | < 1e-05 | < 1e-05 | < 1e-05
11 | U56A U69C | 0.000222 ± 5.9e-05 | 0.000288 ± 6e-05 | 0.000693 ± 0.00019 | 0.000572 ± 0.00015 | 0.00286 ± 0.00081
12 | C34U G40U C67G | < 1e-05 |  |  | < 1e-05 | < 1e-05
13 | C16A G41C | < 1e-05 | < 1e-05 | < 1e-05 |  | 
14 | C8A U49A | < 1e-05 |  | < 1e-05 |  | 
15 | U31A G38U A42C U55G | < 1e-05 |  | < 1e-05 |  | 
16 | C10U G66C | < 1e-05 |  | < 1e-05 |  | < 1e-05
17 | G41C G63C | < 1e-05 |  | < 1e-05 | < 1e-05 | < 1e-05
18 | U30C G43A U46A | < 1e-05 |  |  |  | 
19 | C8G C34A A53C G60C | < 1e-05 | < 1e-05 | < 1e-05 | < 1e-05 | 
20 | C61A U65C C70U | < 1e-05 |  |  |  | < 1e-05
21 | C10U G13C A36C | < 1e-05 |  |  |  | 
22 | C10U G13A C68A | < 1e-05 |  |  |  | 
23 | U30A G37C U65C | < 1e-05 |  |  | < 1e-05 | 
24 | U45A C70U | 0.00112 ± 0.00012 | 0.00187 ± 0.00068 | 0.00199 ± 0.00047 | 0.0203 ± 0.0092 | 0.0102 ± 0.0018

Row | Variant | self-cleavage kobs at 40 uM GlcN6P [1] [s⁻¹] | self-cleavage kobs at 160 uM GlcN6P [2] [s⁻¹] | self-cleavage kobs at 640 uM GlcN6P [3] [s⁻¹] | self-cleavage kobs at 2500 uM GlcN6P [4] [s⁻¹] | self-cleavage kobs at 10000 uM GlcN6P [5] [s⁻¹]
25 | A15G A64U C68U | < 1e-05 |  |  |  | 
26 | G7U U45G C71A | < 1e-05 |  |  | < 1e-05 | < 1e-05
27 | C11G U31C C34G U46A | < 1e-05 |  |  |  | < 1e-05
28 | C11G G43U A48U C61G A64G | < 1e-05 |  | < 1e-05 | < 1e-05 | < 1e-05
29 | G13A C50G C58A C70U | 6.62e-05 ± 1.6e-05 |  |  | 0.000539 ± 6.7e-05 | 9.7e-05 ± 2.5e-05
30 | G35C G66C | < 1e-05 | < 1e-05 | < 1e-05 | < 1e-05 | < 1e-05
31 | G41C C61G | < 1e-05 | < 1e-05 | < 1e-05 | < 1e-05 | 
32 | G9U U49G | < 1e-05 | < 1e-05 | < 1e-05 |  | < 1e-05
33 | G32U U47G U69G | 0.000146 ± 3.4e-05 |  |  |  | 0.000404 ± 7.2e-05
34 | C8A U31G | < 1e-05 | < 1e-05 | < 1e-05 | < 1e-05 | < 1e-05
35 | A6G C67A C68U | < 1e-05 |  |  |  | 
36 | C10A U30G | < 1e-05 | < 1e-05 |  |  | 
37 | U31G A64U | < 1e-05 | < 1e-05 | < 1e-05 | < 1e-05 | 
38 | A14G C71A | 0.000515 ± 6.3e-05 | 0.000688 ± 0.00011 | 0.00337 ± 0.00085 | 0.0123 ± 0.0037 | 
39 | C10U C16U G38A A48G | < 1e-05 |  |  |  | < 1e-05
40 | A14C C34A | < 1e-05 | < 1e-05 | < 1e-05 |  | < 1e-05
41 | C16U C50G G59A C68A | 4.62e-05 ± 2.3e-05 |  |  |  | 4.07e-05 ± 1.3e-05
42 | A6U C58U | < 1e-05 | < 1e-05 | < 1e-05 | < 1e-05 | < 1e-05
43 | G7C U55G | < 1e-05 |  |  |  | < 1e-05
44 | G7C U55A | < 1e-05 | < 1e-05 | < 1e-05 | < 1e-05 | 
45 | G37C G44U | < 1e-05 |  | < 1e-05 |  | 
46 | G43C A48U C50U C58A C67U | < 1e-05 |  | < 1e-05 |  | 
47 | A15U G29C A48G C71A | < 1e-05 |  |  |  | 
48 | U46C G51U | < 1e-05 | < 1e-05 | < 1e-05 | < 1e-05 | 

Row | Variant | self-cleavage kobs at 40 uM GlcN6P [1] [s⁻¹] | self-cleavage kobs at 160 uM GlcN6P [2] [s⁻¹] | self-cleavage kobs at 640 uM GlcN6P [3] [s⁻¹] | self-cleavage kobs at 2500 uM GlcN6P [4] [s⁻¹] | self-cleavage kobs at 10000 uM GlcN6P [5] [s⁻¹]
49 | G38U C50U G51C U69A | 8.35e-05 ± 3.9e-05 |  |  |  | 
50 | A15C U69C | 0.000108 ± 2.5e-05 |  | 0.000226 ± 8.5e-05 | 0.000165 ± 4.4e-05 | 0.00087 ± 0.00022
51 | C11G G41C C50U | < 1e-05 |  |  |  | 
52 | C34A C58U | < 1e-05 | < 1e-05 | < 1e-05 | < 1e-05 | < 1e-05
53 | G43U G63U | < 1e-05 | < 1e-05 |  | < 1e-05 | < 1e-05
54 | G44U C58U C71U | < 1e-05 |  | < 1e-05 | < 1e-05 | < 1e-05
55 | G9C G59C | < 1e-05 | < 1e-05 | < 1e-05 | < 1e-05 | < 1e-05
56 | A42G U45A U49C | < 1e-05 |  |  |  | 
57 | C10A G41C A48C C58G | < 1e-05 |  |  |  | 
58 | G9A G13U C50G U57A | 0.000665 ± 0.00023 |  |  |  | 9.79e-05 ± 2e-05
59 | A6G G43A | < 1e-05 | < 1e-05 | < 1e-05 | < 1e-05 | < 1e-05
60 | A6U G38U C71A | < 1e-05 |  |  |  | 
61 | A42C A53U | < 1e-05 | < 1e-05 | < 1e-05 |  | 
62 | G59A G63C | < 1e-05 | < 1e-05 | < 1e-05 | < 1e-05 | 
63 | G13C A15U C16G A39C | < 1e-05 |  |  |  | < 1e-05
64 | G7U C58A C67G C70U | 9.59e-05 ± 3.4e-05 |  |  |  | 
65 | A42G G60U C68G | < 1e-05 |  | < 1e-05 |  | 
66 | G9C G62U | < 1e-05 | < 1e-05 | < 1e-05 |  | < 1e-05
67 | G7C G44C A64U | < 1e-05 |  |  |  | < 1e-05
68 | G38U G66A U69G | 4.77e-05 ± 2e-05 |  |  |  | 4.02e-05 ± 1.6e-05
69 | G29U G40C A52G | < 1e-05 |  |  |  | 
70 | G13U C16U C19A G40U | < 1e-05 | < 1e-05 | < 1e-05 |  | < 1e-05
71 | C16A U55A | 7.92e-05 ± 1.5e-05 |  |  | 0.000515 ± 0.00022 | 0.00285 ± 0.00043
72 | A6C U31A | < 1e-05 |  | < 1e-05 |  | 3.99e-05 ± 1.3e-05

Row | Variant | self-cleavage kobs at 40 uM GlcN6P [1] [s⁻¹] | self-cleavage kobs at 160 uM GlcN6P [2] [s⁻¹] | self-cleavage kobs at 640 uM GlcN6P [3] [s⁻¹] | self-cleavage kobs at 2500 uM GlcN6P [4] [s⁻¹] | self-cleavage kobs at 10000 uM GlcN6P [5] [s⁻¹]
73 | C11U U30C A52C | < 1e-05 |  |  |  | 
74 | G7A G35C G59A C67G | < 1e-05 | < 1e-05 | < 1e-05 | < 1e-05 | 
75 | A15U C68A C71A | < 1e-05 |  |  |  | 
76 | C11A A12U A52U | < 1e-05 |  |  |  | 
77 | C50U C61G G63U | < 1e-05 |  |  |  | 
78 | A14U U49A | < 1e-05 | < 1e-05 | < 1e-05 |  | 
79 | C11U G13A A33C A53U | < 1e-05 |  |  |  | 
80 | A6U G51U | < 1e-05 | < 1e-05 | < 1e-05 | < 1e-05 | < 1e-05
81 | G7U C8A A33U G43A U55A | < 1e-05 |  | < 1e-05 | < 1e-05 | < 1e-05
82 | G35U C61A | < 1e-05 |  | < 1e-05 | < 1e-05 | < 1e-05
83 | A14G A39C G66A | 9.51e-05 ± 2.2e-05 |  |  | 0.00447 ± 0.00085 | 0.00527 ± 0.0016
84 | C8U G63C | < 1e-05 | < 1e-05 | < 1e-05 | < 1e-05 | < 1e-05
85 | U49C C50A | < 1e-05 | < 1e-05 |  |  | 
86 | U45C U55C | 5.77e-05 ± 1.3e-05 |  |  | 0.00199 ± 0.00054 | 0.00272 ± 0.00037
87 | G7U G38U U46G | < 1e-05 |  |  |  | 
88 | A6G A52U C61G | < 1e-05 |  |  |  | 
89 | C11G G40A G43A | < 1e-05 |  |  |  | < 1e-05
90 | A33C A36G G62U G66A | < 1e-05 |  | < 1e-05 | < 1e-05 | 
91 | A42U G60C C67A | < 1e-05 |  |  |  | < 1e-05
92 | C34U G40U | < 1e-05 | < 1e-05 |  | < 1e-05 | < 1e-05
93 | G13U C34A U49A U65C | < 1e-05 |  |  |  | < 1e-05
